B1: SBE probe (26 bp) (dsDNA)
DNA 1: GGAGTATGTCTAGACTGACAATGTAC
DNA 2: GTACATTGTCAGTCTAGACATACTCC
B2: Vg probe (dsDNA)
DNA 1: TTTGTGCTTGGCTGCCGTCGCGATTCGACAACTTTGG
DNA 2: CCAAAGTTGTCGAATCGCGACGGCAGCCAAGCACAAA

What was measured:
Smad4 (non-fusion) = Smad4 (non-fusion) (Homo sapiens, UniProt Q13485 Q13485:1-552); assay: EMSA; data not shown; conditions: tags: none; rabbit reticulocyte lysate; label: 32P
His6-Smad4 full length = His6-Smad4 full length (Homo sapiens, UniProt Q13485 Q13485:1-552); assay: EMSA; full-length Smad4; conditions: tags: His6 (pET33b, Novagen); label: 32P
Procedure: (§1) (FIG. 2B) The ^32P-labeled SBE probe was incubated with 0.6 ug of a fusion protein containing either the MH1 domain of Smad4 (lane 1) or 0.4–1.6 ug of a fusion protein containing FL Smad4 (lanes 2–5).
(§2) DNA-binding assays were performed essentially as described except that poly (dI-dC), 6 ug/ml, was used as the only competitor and 2% NP-40 was included in the reaction mix. For binding to PCR products derived from clones (e.g., FIG. 1), 1.0–0.5 ug protein […] and 50 ng of DNA end-labeled to 2×10^6 dpm/ug, was used. For binding to oligonucleotides, 0.3–0.5 ug of protein (~0.4 uM final concentration) and 0.5 ng of DNA end-labeled to 2×10^8 dpm/ug, was used. Specificity of binding was checked by competition with unlabeled SBE oligonucleotides and lack of competition with irrelevant oligonucleotides. Quantitation of binding was performed using an Instant Imager (Packard).

GST-Smad4/FL = GST-Smad4/FL (Homo sapiens, UniProt Q13485 Q13485:1-552); assay: EMSA; full-length Smad4; conditions: tags: GST N-terminal (pGEX2TK, Pharmacia); label: 32P
Procedure: as §1, §2

GST-Smad2/MH1 [1] = target: T1, GST-Smad2/MH1 (Homo sapiens, UniProt Q15796 Q15796:1-242); assay: EMSA; did not bind the palindrome (data not shown); exact probe not stated; conditions: tags: GST N-terminal (pGEX2TK, Pharmacia); label: 32P
GST-Smad4/MH1 = GST-Smad4/MH1 (Homo sapiens, UniProt Q13485 Q13485:1-276); assay: EMSA; bound to same extent as longer selected-clone probes; poly(dI-dC), 2% NP-40; conditions: tags: GST N-terminal (pGEX2TK, Pharmacia); label: 32P
Procedure: as §1, §2

GST-Smad3/MH1 = GST-Smad3/MH1 (Homo sapiens, UniProt P84022 P84022:1-200); assay: as above; conditions: tags: GST N-terminal (pGEX2TK, Pharmacia); label: 32P
Procedure: as §1, §2

GST-Smad2/MH1 [2] = target: T1, GST-Smad2/MH1; assay: EMSA; data not shown; conditions: tags: GST N-terminal (pGEX2TK, Pharmacia); label: 32P
Procedure: To evaluate whether the analogous domain of human Smad proteins could bind DNA, GST fusion proteins containing the MH1 domains of Smads 2, 3, and 4 were constructed and expressed in $E. coli$. Electrophoresis mobility shift assays (EMSA) were performed using the purified proteins and labeled oligonucleotides containing the optimal sequence from Vg, essentially as described by Kim et al ). […] However, the binding was relatively inefficient, typically resulting in shifts of less than 5% of the input Vg probe. Several experimental manipulations were employed to increase the efficiency of binding (such as variations of cation, salt concentration, competitor, and other components of the binding buffer) without success.
as §2, with “Specificity of binding was checked by competition with unlabeled SBE oligonucleotides and lack of competition with irrelevant oligonucleotides.” left out

T1 sequence (Q15796 1-242, one chain of several): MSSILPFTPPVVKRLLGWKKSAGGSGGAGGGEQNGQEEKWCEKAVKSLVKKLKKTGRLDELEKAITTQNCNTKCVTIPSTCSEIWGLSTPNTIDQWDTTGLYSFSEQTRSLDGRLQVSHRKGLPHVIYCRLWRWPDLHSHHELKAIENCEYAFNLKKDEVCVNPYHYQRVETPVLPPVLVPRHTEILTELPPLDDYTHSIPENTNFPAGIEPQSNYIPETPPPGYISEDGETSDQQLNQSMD
Chain of GST-Smad4/MH1 (Q13485 1-276, one chain of several): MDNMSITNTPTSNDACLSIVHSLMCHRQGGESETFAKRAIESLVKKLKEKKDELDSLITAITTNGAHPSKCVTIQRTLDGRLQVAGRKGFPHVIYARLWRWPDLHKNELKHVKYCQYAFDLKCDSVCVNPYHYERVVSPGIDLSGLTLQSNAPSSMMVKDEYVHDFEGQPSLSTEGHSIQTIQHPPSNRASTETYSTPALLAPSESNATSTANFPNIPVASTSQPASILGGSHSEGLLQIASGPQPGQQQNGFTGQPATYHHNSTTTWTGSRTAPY
Chain of GST-Smad3/MH1 (P84022 1-200, one chain of several): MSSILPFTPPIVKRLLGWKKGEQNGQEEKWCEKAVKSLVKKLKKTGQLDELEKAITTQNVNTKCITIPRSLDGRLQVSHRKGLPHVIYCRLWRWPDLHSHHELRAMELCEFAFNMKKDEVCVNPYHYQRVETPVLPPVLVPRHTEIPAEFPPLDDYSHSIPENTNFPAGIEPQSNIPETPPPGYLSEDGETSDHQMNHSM
Chain of His6-Smad4 full length (Q13485 whole entry, the tested form may be a part, one chain of several): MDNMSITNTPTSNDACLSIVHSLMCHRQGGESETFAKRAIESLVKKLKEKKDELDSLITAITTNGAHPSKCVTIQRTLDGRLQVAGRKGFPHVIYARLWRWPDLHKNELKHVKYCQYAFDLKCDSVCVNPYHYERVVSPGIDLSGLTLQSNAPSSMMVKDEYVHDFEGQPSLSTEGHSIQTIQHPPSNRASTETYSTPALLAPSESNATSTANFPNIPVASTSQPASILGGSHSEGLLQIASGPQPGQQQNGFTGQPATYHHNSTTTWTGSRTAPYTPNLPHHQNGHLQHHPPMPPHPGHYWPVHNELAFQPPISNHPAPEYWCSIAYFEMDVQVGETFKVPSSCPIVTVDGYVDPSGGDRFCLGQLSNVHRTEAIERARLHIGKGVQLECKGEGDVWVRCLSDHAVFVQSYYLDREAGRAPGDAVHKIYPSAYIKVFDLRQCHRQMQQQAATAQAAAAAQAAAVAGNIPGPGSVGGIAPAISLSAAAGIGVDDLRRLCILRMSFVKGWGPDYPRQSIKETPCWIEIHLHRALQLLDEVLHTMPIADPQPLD
Chain of GST-Smad4/FL (Q13485 whole entry, one chain of several): as the sequence (Q13485 whole entry, the tested form may be a part, one chain of several) above
Chain of Smad4 (non-fusion) (Q13485 whole entry, the tested form may be a part, one chain of several): as above

Binder | binding result (Smad4 (non-fusion)) | binding result (His6-Smad4 full length) | binding result (GST-Smad4/FL) | binding result (GST-Smad2/MH1 [1]) | binding result (GST-Smad4/MH1) | binding result (GST-Smad3/MH1) | binding result (GST-Smad2/MH1 [2])
B1 | binds | binds | binds | no binding | binds | binds | –
B2 | – | – | – | – | – | – | no binding

Reference: patent US6100032, “Human Smad3 and Smad4 are sequence-specific transcription activators” (Johns Hopkins University)
